According to article PMC8565929 (eLife, 2021):

B1: Recombinant his-tagged FL-Hst4 (pET28a) (natural protein, S. pombe, UniProt Q9UR39 1-415, looked up)
chain: MKVEEHVPLIQESRKRKCQSSENASKRQQLLSKLPLRLHTGNENVDLSPLVSAIRKAKRIVVVTGAGISCDAGIPDFRSSEGLFSSLRAEYKLNCSGKELFDGSVYRDLKSVNIFHAMIRKLHMLSNNARPTDFHLFLSQLAQESKLLRLYTQNIDFLETRLEGLQTCIPLPQSAPWPTTIPLHGTLEVVSCTRCSFLKKFNPDIFDRNGVTVCPDCKTENEVRRIAGKRSVIEGCLRPRIVLYNEIHPDSESIGSVCSQDLKSRPDCLIVAGTSCKIPGVKRIIKEMSNCVHKQKGNVIWLNYDEPTKDFLNLCDLVVQGDLQIAIRRLKPLLDAPSWKLKSHSAKRTSKQKSSEQTKITSSTKITKAIGLNTKSNDSSKKDNTSFQLHQVLNSIEIPKVEIKQEVEYATPSPL
B2: Swi3-3FLAG (natural protein, S. pombe, UniProt O14350 1-181, looked up)
chain: MSTAASDSGVEKLVEENKREEVKKNEEEKEFDLGLEENPDSVKKPRKRLAKFDEERLISENGIPKLRKMMRKVKLKGKGHEAKDLKQLLGMYHIWTHELYPRATFDDSISYLKTLGKHRSVKVRRRGWINEIAVENGSDSNASLFTGPSSNSLVNLTSGDPYVQDTADDAFVAQDNDTQLE

What was measured:
Experiment in all cases: pull-down
[1] = biological target: DDK (Hsk1-HA with Dfp1-myc) (S. pombe, UniProt P50582 1-507; O59836 1-545)
Swi1-3FLAG = Swi1-3FLAG (S. pombe, UniProt Q9UUM2 1-971)
[2] = biological target: B1

Sequence of DDK (Hsk1-HA with Dfp1-myc) (P50582 whole entry, chain 1 of 2): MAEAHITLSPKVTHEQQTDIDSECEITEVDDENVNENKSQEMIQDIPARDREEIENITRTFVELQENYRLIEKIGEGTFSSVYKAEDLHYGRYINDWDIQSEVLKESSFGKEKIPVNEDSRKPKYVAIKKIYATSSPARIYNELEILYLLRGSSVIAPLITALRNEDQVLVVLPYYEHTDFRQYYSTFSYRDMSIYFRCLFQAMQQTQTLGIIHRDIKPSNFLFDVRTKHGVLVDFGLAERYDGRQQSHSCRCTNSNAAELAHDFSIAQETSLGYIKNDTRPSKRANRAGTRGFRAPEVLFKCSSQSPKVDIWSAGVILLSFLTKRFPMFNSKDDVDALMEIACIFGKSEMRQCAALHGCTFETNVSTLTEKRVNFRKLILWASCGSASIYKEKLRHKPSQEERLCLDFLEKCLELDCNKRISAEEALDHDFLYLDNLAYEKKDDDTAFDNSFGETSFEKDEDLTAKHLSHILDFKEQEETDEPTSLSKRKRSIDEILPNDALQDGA
Sequence of DDK (Hsk1-HA with Dfp1-myc) (O59836 whole entry, chain 2 of 2): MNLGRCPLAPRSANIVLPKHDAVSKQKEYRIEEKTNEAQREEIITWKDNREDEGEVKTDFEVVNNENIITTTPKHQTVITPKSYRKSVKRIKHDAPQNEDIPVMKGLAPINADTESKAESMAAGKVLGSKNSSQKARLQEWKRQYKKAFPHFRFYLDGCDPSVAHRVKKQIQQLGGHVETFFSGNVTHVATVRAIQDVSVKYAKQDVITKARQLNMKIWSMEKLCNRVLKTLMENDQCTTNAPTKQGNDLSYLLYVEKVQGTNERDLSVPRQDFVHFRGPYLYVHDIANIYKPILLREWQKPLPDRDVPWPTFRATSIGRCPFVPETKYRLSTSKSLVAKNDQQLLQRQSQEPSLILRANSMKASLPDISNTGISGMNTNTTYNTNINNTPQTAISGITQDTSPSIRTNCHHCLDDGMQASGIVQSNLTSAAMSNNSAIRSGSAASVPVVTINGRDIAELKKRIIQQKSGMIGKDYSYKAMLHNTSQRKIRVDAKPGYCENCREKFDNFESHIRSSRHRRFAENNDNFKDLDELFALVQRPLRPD
Sequence of Swi1-3FLAG (Q9UUM2 whole entry): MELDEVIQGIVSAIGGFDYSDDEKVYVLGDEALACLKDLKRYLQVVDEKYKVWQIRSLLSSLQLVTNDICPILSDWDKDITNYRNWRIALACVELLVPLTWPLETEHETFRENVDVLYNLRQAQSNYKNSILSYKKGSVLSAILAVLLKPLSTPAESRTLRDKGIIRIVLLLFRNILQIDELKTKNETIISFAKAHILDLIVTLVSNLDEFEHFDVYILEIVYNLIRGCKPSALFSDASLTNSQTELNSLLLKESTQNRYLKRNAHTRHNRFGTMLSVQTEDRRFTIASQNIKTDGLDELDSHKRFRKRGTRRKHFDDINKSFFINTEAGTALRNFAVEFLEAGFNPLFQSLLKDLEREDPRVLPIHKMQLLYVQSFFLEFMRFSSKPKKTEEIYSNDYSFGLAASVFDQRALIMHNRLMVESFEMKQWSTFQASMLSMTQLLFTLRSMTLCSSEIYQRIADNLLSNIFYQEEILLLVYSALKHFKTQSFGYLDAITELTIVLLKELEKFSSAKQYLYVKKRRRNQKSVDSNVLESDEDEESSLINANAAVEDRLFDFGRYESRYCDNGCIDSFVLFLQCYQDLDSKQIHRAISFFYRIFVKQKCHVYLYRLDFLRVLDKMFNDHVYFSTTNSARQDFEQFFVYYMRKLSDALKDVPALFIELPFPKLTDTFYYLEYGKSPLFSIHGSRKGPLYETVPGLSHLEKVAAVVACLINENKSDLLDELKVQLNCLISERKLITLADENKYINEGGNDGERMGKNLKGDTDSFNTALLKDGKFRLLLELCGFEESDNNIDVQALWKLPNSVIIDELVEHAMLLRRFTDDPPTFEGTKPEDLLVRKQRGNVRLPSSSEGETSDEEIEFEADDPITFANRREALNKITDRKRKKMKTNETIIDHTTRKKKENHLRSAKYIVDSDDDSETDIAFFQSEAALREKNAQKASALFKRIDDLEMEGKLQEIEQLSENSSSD

Row | Binder | binding result [1] | binding result (Swi1-3FLAG) | binding result [2]
1 | B1 | binds | binds | 
2 | B2 |  |  | binds
